From patent publication US20140093973A1 (BOARD OF REGENTS OF THE UNIVERSITY OF OKLAHOMA, published 2014)
Ends that are not written are not given here.

How the values were obtained:
soluble HLA-A*0301 [1] = target: T1, soluble HLA-A*0301 (human); test: FP competition against 1.8 nM FITC-labeled P1(A*0301), 42.1 µg/ml sHLA A*0301T (2798)
T1 construct: Member of the panel of 53 single-specificity sHLA

soluble HLA-A*0101 [2] = target: T2, soluble HLA-A*0101 (human); test: FP competition against 1.6 nM FITC-labeled P2(A*0101), 41.0 µg/ml sHLA A*0101T (C22)
T2 construct: Member of the panel of 53 single-specificity sHLA

soluble HLA-A*2902 = target: T3, soluble HLA-A*2902 (human); test: FP competition against 1.5 nM FITC-labeled P2(A*0101), 49.9 µg/ml sHLA A*2902T (1224)
T3 construct: Member of the panel of 53 single-specificity sHLA

[3] = target: soluble HLA-A*0201 (sHLA-A*0201) (human); test: FP screen
[4] = target: T4, soluble HLA-B*2705 (sHLA-B*2705) (human); test: FP screen
T4 construct: Recombinant soluble class I with endogenous peptides, made as m1; negative control

[5] = target: T5, soluble HLA-A*6801 (sHLA-A*6801) (human); test: FP screen
T5 construct: Recombinant soluble class I with endogenous peptides, made as m1

soluble HLA-A*0101 [6] = target: T2, soluble HLA-A*0101; test: FP screen
soluble HLA-A*3601 = target: T6, soluble HLA-A*3601 (human); test: FP screen
T6 construct: Member of the panel of 53 single-specificity sHLA

soluble HLA-A*3402 = target: T7, soluble HLA-A*3402 (human); test: FP screen
T7 construct: Member of the panel of 53 single-specificity sHLA

soluble HLA-A*2601 = target: T8, soluble HLA-A*2601 (human); test: FP screen
T8 construct: Member of the panel of 53 single-specificity sHLA

soluble HLA-B*1302 = target: T9, soluble HLA-B*1302 (human); test: FP screen
T9 construct: Member of the panel of 53 single-specificity sHLA

soluble HLA-B*1512 = target: T10, soluble HLA-B*1512 (human); test: FP screen
T10 construct: Member of the panel of 53 single-specificity sHLA

soluble HLA-A*0301 [7] = target: T1, soluble HLA-A*0301; test: FP screen
soluble HLA-A*3002 = target: T11, soluble HLA-A*3002 (human); test: FP screen
T11 construct: Member of the panel of 53 single-specificity sHLA

soluble HLA-B*1801 = target: T12, soluble HLA-B*1801 (human); test: FP screen
T12 construct: Member of the panel of 53 single-specificity sHLA

soluble HLA-B*4002 = target: T13, soluble HLA-B*4002 (human); test: FP screen
T13 construct: Member of the panel of 53 single-specificity sHLA

soluble HLA-B*4402 = target: T14, soluble HLA-B*4402 (human); test: FP screen
T14 construct: Member of the panel of 53 single-specificity sHLA

[8] = target: T15, soluble HLA-A*4301 (sHLA-A*4301) (human); test: FP screen
T15 construct: Recombinant soluble class I with endogenous peptides, made as m1

[9] = target: T16, soluble HLA-A*1102 (sHLA-A*1102) (human, UniProt P04439 25-308; P61769 21-119); test: FP screen
T16 construct: Recombinant soluble class I with endogenous peptides, made as m1

soluble HLA-A*2402 = target: T17, soluble HLA-A*2402 (human); test: FP screen of 53 sHLA with FITC-peptide
T17 construct: Member of the panel of 53 single-specificity sHLA

## SLFRAVITK [C2(A*0301)]
Soluble HLA-A*0301 [1]
  IC50: 518 nM

## ATDFKFAMY [C1(A*0101)]
Soluble HLA-A*0101 [2]
  IC50: 1570 nM
Soluble HLA-A*2902
  IC50: 8630 nM

## KYPENKFLL (also: FITC-labeled, position not given here) [KYPENKFLL, FITC-labeled A24-like peptide]
[3]
  binding result: no binding (tested: 100 ug/ml sHLA)
[4]
  binding result: no binding (tested: 100 ug/ml sHLA)
[5]
  binding result: no binding (tested: 100 ug/ml sHLA)
Soluble HLA-A*0101 [6]
  binding result: no binding (tested: 100 ug/ml sHLA)
Soluble HLA-A*3601
  binding result: no binding (tested: 100 ug/ml sHLA)
Soluble HLA-A*3402
  binding result: no binding (tested: 100 ug/ml sHLA)
Soluble HLA-A*2601
  binding result: no binding (tested: 100 ug/ml sHLA)
Soluble HLA-B*1302
  binding result: no binding (tested: 100 ug/ml sHLA)
Soluble HLA-B*1512
  binding result: no binding (tested: 100 ug/ml sHLA)
Soluble HLA-A*0301 [7]
  binding result: no binding (tested: 100 ug/ml sHLA)
Soluble HLA-A*3002
  binding result: no binding (tested: 100 ug/ml sHLA)
Soluble HLA-B*1801
  binding result: no binding (tested: 100 ug/ml sHLA)
Soluble HLA-B*4002
  binding result: no binding (tested: 100 ug/ml sHLA)
Soluble HLA-B*4402
  binding result: no binding (tested: 100 ug/ml sHLA)
[8]
  binding result: no binding (tested: 100 ug/ml sHLA)
[9]
  binding result: no binding (tested: 100 ug/ml sHLA)
Soluble HLA-A*2402
  binding result: binds
